The nanobody polyreactivity screen of Harvey et al. (2022)

Experiment: yeast display, Sf9 membrane polyspecificity reagent, FACS + sequencing; frameworks hold sequencing errors
How it was run: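 Nanobodies came from a synthetic yeast display library in Saccharomyces cerevisiae BJ5465, induced with galactose for 36–48 hours and stained for 1 hour at 4 °C with 10% biotinylated, detergent-solubilized Sf9 membrane reagent. Cells were enriched on streptavidin microbeads and then FACS-sorted, with low and high (top ~1%) gates set on anti-HA fluorescence for expression and streptavidin fluorescence for reagent binding. Each polyreactivity label reflects the gate a clone came from. Genes were amplified by colony PCR, sequenced by MiSeq 2 × 250 and filtered by CDR length.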

Sequence | polyreactivity (PSR sort gate)
QVQLVESRGGLVQAGGSLRLSCAASGRIFSIYAMGWYRQAPGKERELVAAITNGGGSTYYADSVKGRFTISRDNAKNTVYLPMISLKPEDTAVYYCAARSPGGKNTKYYWGQGTQVTVSS | high polyreactivity
QVQLVESGGGIVQAGGSLRLSCAASGIIIDGNAMGWYRQAPGKERELVAAISSRGGSTYYADSVKGRFTISRDYAKNTVYLQMNSLKPEDTAVYYCAAKVRHYYSASNYYYWGQGTQVTVSS | high polyreactivity
QVQLVESGGGLVQAGGSLRLSCAASGYILRYYGLGWYRQAPGKERELVAAITRGVSTNYADSVKGRFSISRDNAKNTVYLKMNSLKPEDTAVYYCAAKYYPYSSLSKPWTMDYWGQGTQVTVSS | low polyreactivity
QVQLVESGGGLVQAGGSLRLSCAASGRTFGTYAMGWYRQAPGKERELVARISYTGGSTSYADSVKGRFTISRDNAKNTVYLQMNSLKPEDTAVYYCNASSRSGSWRFYYWGQGTQVTVSS | high polyreactivity
QVQLVESGGGLVPAGGSLRLSCAASGFIFSRYDMGCYRQAPGKERELVAAIDWSGDSTYYADSVKGRFTISRDNAKNTVYFQMNSLKPEDTAVYYCAAGQDGDSDWGQGTQVTVSS | low polyreactivity
QVQLVESGGGLVQAGGSLRSSCAATGRTFYYNGMGWYRQAPGKERELVATITNGGSTNYADSVKGRFTISRDNAKNTVYLQMNSLKPEDTAVSYCAKTLASDCYDYWGQGTQVTVSS | low polyreactivity
QVQLVESGGGLVQAGGSLRLICPASGRTFQYYAMGWYRQAPGKERELVAAIDDSDGDTYYADSVKGRFTISRDYATNTVYLQMISLKPEDTAVYYCAAVDGWTYTGSDYWGQGTQVTVSS | low polyreactivity
QVQLVESGGGLVQAGGSLRLSCAASGSTYVGYTLGWYRQAPGKERELVAAITRRSGSTYYADSVKGRFTISRDNAKNTVYVQMNSLKPEDTAVYYCAKDFSRYSRFGHTEHDYWGQGTQVTVSS | high polyreactivity
QVQLVESGGGLVQAGGSLSLSCAASGSTFIKNAMGWYRQAPGKESELVAAINWSGTRTYYADSVKGRFTISRDNANNTVYLKMNSLKPEDTAVYYCAKVIARFVRYDYWGQGTQVTVSS | high polyreactivity
QVQLVESGGGLVQAGGSLRLSCAASGIIVYYYAMGWYRPAPGKERELVAAISTSGTRTFYADSVKGRFTISRDNAKKTVYLQMNSLKPEDTAVYYCAARIYKPQRCTSLYRTSGYWGQGTQVTVSS | high polyreactivity
QVQLVESGGGLVQAGGSLRLSCAASGSIFSANAMGWYRQAPGKERELLAAISSSGNTNYADSVKGRFTISRDNAKNTVYLQMNSLKPEDTAVYYCAVELKQVTPGLGYITLDYWGQGTQVTVSS | low polyreactivity
QVQLVESGGGLVEGGGSLRLSCAASGFTFGRYTMGWYRQATGKERELVAAISWSGGSTYYADSVKGRFTISRDNAKNTVYLQLNSLKQEDTAVYNCATRLKSVSGGYNYWGQGTQVTVSS | high polyreactivity
QVQLVESGGGLVQAGGSLRLSCAASGRIFYHYAMGWYRQAPGKERELVATISASGSRTSYADSVKGRFTISRDNAKNTVYLQMNSLKPEDTGVYYCAADAPFWYGLDYWGQGTQVTVSS | high polyreactivity
QVQLVESGGGLVQAGGSLRLSCAASGSIFTFYAMGWYRQAPGKERELVAAISSGGDTYYADSVKGRFTISRDNAKNTVYLQMNSLKAEDTAVYYCAADWRGSYLYGYYYWGQGTQVTVSS | low polyreactivity
QVQLVESSGGLVQAGGSLRLRCAASGMISEYNAMGWSRQAPGKERELVAAITWNGGSTFYADSVKGRFTISRDNAKNTVYLQMNSLKPEDTAVYYCNKTRLEPEYGYWGQGTQVTVSS | low polyreactivity
QGQLVESGGGLVQAGGCLRLSCAASGGTFDYNAMGWYRQAPGKERELVAAITSGASTYYADSVKGRFTISRDNAKNTVYLQMNSLKPQDTAVYYCAKGPTPGYDYWGQGTQVTVSS | low polyreactivity
QVQLVESGGGLVQAGGSLRLSCAPSGGTFPVYAMGWYRQAPGKERELVAAISYSGVTTYNADSVKGRFTISRDNAKNTVYLQMNSLKPEVTAVYYCNADWRPWYMFSYDYWGQGTQVTVSS | low polyreactivity
QVQLVESGGGLVQAGGSLRLSCAASGSILSINGMGWYRQAPGKERELVATIDGSDGTTFYADSVKGRFTISRDNAKNTVYLQMNSLKPEDTAVYYCAAENFWQTKEYDYWGQGTQVTVSS | low polyreactivity
QDQLVESGGGLVQAGGSLRLSCAASGATYRNNAMGWYRQAPGKERELVAAISRGGGSTYYADSVNGRFTISRDNAKNNVYLQMNSLKPEDTAVYYCARRPTGIYDYWGQGTQVTVSS | high polyreactivity
QVQLVESGGGLVKAGGSLSLSCAASGFTVYRYTMGWYRPAPGKEREVVARITYSGGSTYYADSVKVRFTISRDNAKNTVYLQLYCLKPVDSAVYYCNARSDFYSRYGYKYDYWGQGTQVTVSS | high polyreactivity
QVQLVESGRGLVQAGGTLRISFADSGRIFGNYAMGRYRQAPGKERELVAAIPWRGGRTRYADSVKGRFTISRDNAKNTVYLQMNSLKPEDTAVYYCAAPYTSSGPDDYWGQGTQVTVSS | high polyreactivity
QFQLVESGRGLVQAGGSLRLSCAASGSTFSANAMGWYRQAPGKERELVAAISRSGTRTYYADSVKGRFTISRDNAKNTVYLQMNSLKPEDTAVYYCAAYVYQYGYDYWGQGTQVTVSS | high polyreactivity

Sequence | polyreactivity (PSR sort gate)
QVQLVESGGGVLQAGGSLRLSCAASGRTFCFYAMGWSRQAPGKERELVASITWRGGRTYYADSVKGRFTISRDNAKNTVYLQMNSLKPEDTAVYYCAAVTFSYDGYDYWGQGTQVTVSS | low polyreactivity
KVQLVDSGGGLVQAGGSLRLSCAASGSTSKCYAMGWYRPEPGKERELVAAITKTGGRTYYADSVKGRFTISRDNAKNTVYLQMNSLKPEDTADYYCAVEYLRGFIVIYDYWGQGTQVTVTS | high polyreactivity
QVQLVESGGGLVQAGGSLRLSCAASGRTFYLYAMGWYRPAPGKERELVAAITSGGSTNYADSVKGRFTISRDNAKNTVYLQMNSLKPEDTAVYYCNAYKRGYLYRYNYWGQGTQVTVSS | high polyreactivity
QVQLVESGGGLVQAGGSLRLSCAASGSTFGVNAMGWYRQAPGKERELVAIITSTTYADSVKGRFTISRDNAKNTVYLQMNSLKPEDTAVYYCAKDQERVTKGRFYLLEYYWGQGTQVTVSS | low polyreactivity
QVQLVESGGGLVQAGGSLRLSCAASGRIFRQYAMGLYRQAPGKERELVAAISRRGTSTYYADSVKGRFTISRDNAKNTVYLQMNSLKPEDTAVYYCAAGGVYSIYRTSRVGYDYWGQGTQVTVSS | high polyreactivity
QVQLVESGGGLVQPGGRLRLSCAASGFTFHDYAMGWYRPAPGKERELVAAITKSGGRTYYADSVKGRFTISRDNAKNTVYLQMNSLKPEDTAVYFCAAASYRSQYDYYYWGQGTQVTVSS | high polyreactivity
QVQLVDSGGGLVQAGGSLRLSCAASGRIFYRYAMGWYRQAPGKERELVATISRGGITNYADSVKGRFTISRDNAKNTVYLEMNSLKPEDTAVYYCNAVYGFRRLFEYEYDYWGQGTQVTVSS | high polyreactivity
QVQLVESGGGLVQAGGSVRLSCAASGSIFNANTMGWYRQAPGKERELVAVITSGGTTNYADSVKGRFTISRDNAKNTVYLQMNSLKPEDTAVYYCAVRISGNWYDYWGQGTQVTVSS | low polyreactivity
QVQLVESGGGLVQAGGSLRLSCAASGSIFDDYAMGWYRQAPGKERELVAAISWSGGRTYYADSVKGRFTISRDNAKNTVYLQMNSLKPEDTAVYYCAASTGVRSRRYYYWGQGTQVTVSS | low polyreactivity
QVQLVESGGGLVQAGGSLRLSCAASGRILPGYAMGWYRQAPGKERELVAAIRGNGDSTYYADSVKGRFTISRDNAKNTVYLQMNSLKPEDTAVYYCAARRVSTIQRDSYRGRKYGYWGQGTQVTVSS | low polyreactivity
QVQLVESRGGLVQAGGSLRLSCAASGSTFTHYAMGRYRHAPGKERELVAAISWGGGTTRYADSVKGRFTISRDNAKNSVYLQMNSLKPVDTAVYYCAKRVRTGSVGNFNYWGQGTQVSVSS | high polyreactivity
QVQLVESGGGLVQAGGSLRLSCAASGSNFSGNAMGWYRQAPGKERELVAAISRRGGRTYYADSVKGRFTISRDNAKNTVYLQMNSLIPEDTAVYYCNADSVRYDYSAYDYEYWGQGTQVNVSS | high polyreactivity
QVQLVESGGGLVQAGGSLRLSCAASGYFDRNAMGWDRQAPGKERELVAAITVGGSTNYADSVKGRFTISRDNAKNSVYVQMNSLKPEDTAVYYCAADRGHTILHGGYWGQGTQVTVSS | low polyreactivity
QVQLVESGGGLVQAGGSLRLSCAASGYIVDRNAMGWYRQAPGKERELVAAITKRGGITYYADSVKGRFTISRDNAKNTVYLQMNSLKPEDTAVYYCNALARSSRYDYWGQGTQVTVSS | low polyreactivity
QVQHEESGGGLVQAGGSLRLICAASGRTFADNAMGWYRQAPGTERELVPSISSVTSTNYADSVKGRFTISRDNAKYTVYFQMNSLKPEDPAVYDCNAYGPIWYTAVLGFGRYYGWTDYWGQGTQVTVSS | low polyreactivity
QVQLVESGGGLVQAGGSLRLSCAASGRILHRYVMGWNRQAPGKERELVAAISSGGSTTYADSVKGRFTISRDNAKNTVYLQMNSLKPEATAVYYCAKYSFWRTSRMDFWGQGTQVTVSS | low polyreactivity
QVQLVESGGGLVQAGGSLRLSCAASGFIFWDKAMGWYRQAPGKEWELVAAISKSGTRTYYADSVKGRFTISRDTAKKTVDLQMNSLKPEETAVYYCAAEGSGYDYYYWGQGTQVTVSS | high polyreactivity
QVQLVESGGGLVQAGGSLRLSCAASGSIFEFYAMGWYRQAPGKERELVAAITSDGGSTYYADSVKGRFTISRDNAKNTVYLQMNSLKPEDTAVYYCAKDPYALPAQINDYWGQGTQVTVSS | high polyreactivity
QVQLVESGGGLVQAGGSLRLSCAASGRIFKRYAMGWYRQAPGKERELVAAISRGGSTNYADSVKGRFTISRDNAKNTVYLQMNSLKPEDTAVYYCAVQSGYSGSSQPVRYDYWGQGTQVTVSS | high polyreactivity
QVQLVESGGGLVQAGGSLRLSCAASGSIFYAYAMGWYRQAPGKERELVAGINTRGGSTYYADSVKGRFTISRDNAKNTVYLQMNSLKPEDTAVYYCNARTLTVLEFDYWGQGTQVTVSS | low polyreactivity
QVQLVESGGGLVQAGGSLRLSCAASRSTLSTYAMGWYRQAPGTERELVAAITWSDDSTYYADSVKGRFTISRDNAKNTVYLQMNSLKPEDTAVYYCAAEYISWFFGYDYWGQGTQVTVSS | high polyreactivity
